The values below come from article PMC5739284 (Nature microbiology, 2017).

The target of the test is GST-His6-LC3B (recombinant) (human, UniProt Q9GZQ8 1-120). Nature of the test: pull-down.

As for SGGDDDWTHLSSK [synthetic p62 LIR peptide], the binding result is given as “binds”.
